Laboratory results published in US20180051081A1 (published 2018).
Each block holds one binder with its values, some of them ahead of it.

What was measured:
rat CD47 = biological target: T1, rat CD47 (rat, UniProt P97829 19-303); test: FACS, rat RBCs, supernatant 10 ng/ml
T1 construct: whole, on cells; also called CD47 on rat RBCs
T1 sequence (looked up): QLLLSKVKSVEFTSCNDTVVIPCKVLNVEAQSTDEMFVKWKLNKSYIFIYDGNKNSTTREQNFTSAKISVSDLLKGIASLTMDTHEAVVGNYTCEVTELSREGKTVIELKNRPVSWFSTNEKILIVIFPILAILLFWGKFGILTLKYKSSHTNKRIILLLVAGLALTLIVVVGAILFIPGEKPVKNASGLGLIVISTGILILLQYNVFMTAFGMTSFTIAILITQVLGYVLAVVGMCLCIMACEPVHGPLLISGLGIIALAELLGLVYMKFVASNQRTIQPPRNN
Description: (§1) RBCs are incubated for 60 minutes on ice with tissue culture supernatants containing the secreted humanized antibodies at a concentration of 10 ng/ml in a solution of phosphate buffered saline, pH 7.2, 2.5 mM EDTA (PBS+E), or with various concentrations of purified antibodies. Cells are then washed with cold PBS+E, and incubated for an additional hour on ice with FITC labeled donkey anti-human antibody (Jackson Immuno Research Labs, West Grove, Pa.; Catalogue #709-096-149) in PBS+E. Cells are then washed with PBS+E, and antibody binding is analyzed using a BD FACSAria Cell Sorter (Becton Dickinson) or a C6 Accuri Flow Cytometer (Becton Dickinson). Antibody binding is quantitated by comparison of mean fluorescence values relative to that of chimeric antibody >VxP037-01LC (SEQ ID NO:7))/>VxP037-01HC (SEQ ID NO:57). The mean fluorescence value for each antibody is divided by the mean fluorescence value for the chimeric antibody.

dog CD47 = biological target: T2, dog CD47 (dog, UniProt A0A8I3PM61 19-310); test: FACS, dog RBCs, supernatant 10 ng/ml
T2 construct: also called CD47 on dog RBCs
T2 sequence: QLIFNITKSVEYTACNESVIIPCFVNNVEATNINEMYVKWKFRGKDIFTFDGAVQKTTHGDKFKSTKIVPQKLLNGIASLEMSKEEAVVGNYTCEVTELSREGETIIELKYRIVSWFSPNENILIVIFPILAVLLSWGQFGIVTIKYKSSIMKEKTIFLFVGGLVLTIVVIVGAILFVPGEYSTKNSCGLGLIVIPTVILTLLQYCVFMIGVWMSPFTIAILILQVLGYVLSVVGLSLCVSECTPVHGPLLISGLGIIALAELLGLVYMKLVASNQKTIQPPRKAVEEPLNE
Description: as §1

mouse CD47 = biological target: T3, mouse CD47 (mouse, UniProt Q61735 19-303); test: FACS, mouse RBCs, supernatant 10 ng/ml
T3 construct: whole, on cells; also called CD47 on mouse RBCs; CD47 on 4T1 cells
T3 sequence (looked up): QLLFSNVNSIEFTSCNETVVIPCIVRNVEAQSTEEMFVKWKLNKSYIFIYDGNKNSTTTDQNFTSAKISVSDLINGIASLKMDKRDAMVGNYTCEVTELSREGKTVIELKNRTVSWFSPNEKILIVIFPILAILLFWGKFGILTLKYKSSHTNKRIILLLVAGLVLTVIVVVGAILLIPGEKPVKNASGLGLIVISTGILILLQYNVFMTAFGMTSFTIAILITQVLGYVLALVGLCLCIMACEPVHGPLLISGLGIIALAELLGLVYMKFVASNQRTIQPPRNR
Description: as §1

pig CD47 = biological target: T4, pig CD47 (pig, UniProt Q9GKE8 19-303); test: FACS, pig RBCs, supernatant 10 ng/ml
T4 construct: whole, on cells; also called CD47 on porcine RBCs
T4 sequence (looked up): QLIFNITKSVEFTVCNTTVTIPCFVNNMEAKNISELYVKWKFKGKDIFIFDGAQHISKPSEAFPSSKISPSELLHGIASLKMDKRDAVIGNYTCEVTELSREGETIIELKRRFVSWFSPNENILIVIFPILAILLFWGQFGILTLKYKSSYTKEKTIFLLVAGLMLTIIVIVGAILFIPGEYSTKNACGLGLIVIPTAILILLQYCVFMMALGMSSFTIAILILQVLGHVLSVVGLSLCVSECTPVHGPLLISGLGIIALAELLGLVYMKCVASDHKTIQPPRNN
Description: as §1

human CD47 = biological target: T5, human CD47 (human, UniProt Q08722 19-323); test: FACS, human RBCs, supernatant 10 ng/ml
T5 construct: whole, on cells; also called CD47 on human RBCs; CD47 on OV10 cells
T5 sequence (Q08722 19-323): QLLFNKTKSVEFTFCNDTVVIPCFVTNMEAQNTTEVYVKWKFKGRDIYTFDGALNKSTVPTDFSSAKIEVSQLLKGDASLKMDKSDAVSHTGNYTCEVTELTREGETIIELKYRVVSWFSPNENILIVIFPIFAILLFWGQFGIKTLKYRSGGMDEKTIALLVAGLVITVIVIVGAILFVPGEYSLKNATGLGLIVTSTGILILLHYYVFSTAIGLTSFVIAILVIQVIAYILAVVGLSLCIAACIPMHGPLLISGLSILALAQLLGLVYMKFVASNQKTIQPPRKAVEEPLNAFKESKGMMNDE
Description: as §1

mean fluorescence relative to chimera (rat CD47): 2.1
mean fluorescence relative to chimera (dog CD47): 1.3
mean fluorescence relative to chimera (mouse CD47): 0.9
mean fluorescence relative to chimera (pig CD47): 1.3
mean fluorescence relative to chimera (human CD47): 0.8
B1: Clone 17 (pVxK7b-037-hum17-LC / pVxK7b-037-hum17-HC) (antibody, human IgG1, kappa)
light: AIQLTQSPSSLSASVGDRVTITCRSSQSLVHSNGNTYLHWYQQKPGQAPRLLIYKVSYRFSGVPDRFSGSGSGTDFTLKISRVEAEDVGVYYCSQNTHVPRTFGQGTKVEIKRTVAAPSVFIFPPSDEQLKSGTASVVCLLNNFYPREAKVQWKVDNALQSGNSQESVTEQDSKDSTYSLSSTLTLSKADYEKHKVYACEVTHQGLSSPVTKSFNRGEC
heavy: not shown

mean fluorescence relative to chimera (rat CD47): 1.2
mean fluorescence relative to chimera (dog CD47): 0.8
mean fluorescence relative to chimera (mouse CD47): 0.7
mean fluorescence relative to chimera (pig CD47): 0.8
mean fluorescence relative to chimera (human CD47): 0.7
B2: Clone 8 (pVxK7b-037-hum08-LC / pVxK7b-037-hum08-HC) (antibody, human IgG1, kappa)
light: DIVMTQTPLSLPVTPGEPASISCRSSQSLVHSNGNTYLHWYQQKPGKAPKLLIYKVSYRFSGVPDRFSGSGSGTDFTLKISRVEAEDVGVYYCSQNTHVPRTFGQGTKVEIKRTVAAPSVFIFPPSDEQLKSGTASVVCLLNNFYPREAKVQWKVDNALQSGNSQESVTEQDSKDSTYSLSSTLTLSKADYEKHKVYACEVTHQGLSSPVTKSFNRGEC
heavy: not shown

mean fluorescence relative to chimera (rat CD47): 1.2
mean fluorescence relative to chimera (dog CD47): 0.8
mean fluorescence relative to chimera (mouse CD47): 0.7
mean fluorescence relative to chimera (pig CD47): 1.2
mean fluorescence relative to chimera (human CD47): 0.8
B3: Clone 11 (pVxK7b-037-hum11-LC / pVxK7b-037-hum11-HC) (antibody, human IgG1, kappa, V domains shown)
VH: QVQLQESGPGLVKPGATVKISCKVSGYTFTNYYVFWVRQARGQRLEWIGDINPVNGDTNFNEKFKNRVTITADKSTSTAYMELSSLRSEDTAVYYCARGGYTMDYWGQGTLVTVSS
VL: EIVLTQSPATLSVSPGERATLSCRSSQSLVHSNGNTYLHWYQQKPGQAPRLLIYKVSYRFSGVPSRFSGSGSGTDFTFTISSLEAEDAATYYCSQNTHVPRTFGQGTKVEIKR
notes: also called Cl 11

mean fluorescence relative to chimera (rat CD47): 2.2
mean fluorescence relative to chimera (dog CD47): 1.5
mean fluorescence relative to chimera (mouse CD47): 1.3
mean fluorescence relative to chimera (pig CD47): 1.2
mean fluorescence relative to chimera (human CD47): 1
B4: Clone 18 (pVxK7b-037-hum18-LC / pVxK7b-037-hum18-HC) (antibody, human IgG1, kappa, V domains shown)
VH: EVQLVQSGAEVKKPGESLRISCKGSGYTFTNYYVFWIRQSPSRGLEWLGDINPVNGDTNFNEKFKNRVTITADKSTSTAYMELSSLRSEDTAVYYCARGGYTMDYWGQGTLVTVSS
VL: B3 VL

mean fluorescence relative to chimera (rat CD47): 2.1
mean fluorescence relative to chimera (dog CD47): 1.1
mean fluorescence relative to chimera (mouse CD47): 1
mean fluorescence relative to chimera (pig CD47): 1.1
mean fluorescence relative to chimera (human CD47): 0.9
B5: Clone 16 (pVxK7b-037-hum16-LC / pVxK7b-037-hum16-HC) (antibody, human IgG1, kappa, V domains shown)
VH: QVQLQESGPGLVKPSQTLSLTCTVSGYTFTNYYVFWVRQARGQRLEWIGDINPVNGDTNFNEKFKNRVTISADKSISTAYLQWSSLKASDTAMYYCARGGYTMDYWGQGTLVTVSS
VL: AIQLTQSPSSLSASVGDRVTITCRSSQSLVHSNGNTYLHWYQQKPGQAPRLLIYKVSYRFSGVPDRFSGSGSGTDFTLKISRVEAEDVGVYYCSQNTHVPRTFGQGTKVEIKR
